B1: Pistol ribozyme (parent)
chain: GGGUCGUUGUUCCAUAAUCGCGUGGAUAUGGCACGCAAGUUUCUACCGGGCACCGUAAAUGUCCGACUGGAGCCGUUCGGGCGGCUAUAAACAGACCUCAGGCCCGAAGCGUGGCGGCACCUGCCGCCGGUGGUAAAAAAGAUCGGAAGAGCACACGUCU

In this data set the parent is B1. In words: aptazyme ON/OFF ratio, guanine; higher = stronger switching; co-transcriptional cleavage with and without guanine.
Consider U7G U8G G9U U10G U11A C12A, for which the “aptazyme ON/OFF ratio” value was determined as 1.13. The result for U7G U8C G9U C13G reads 1.04.

As to U7G U8C G9C U11C C12A C13A, the “aptazyme ON/OFF ratio” value was 1.11.

Take U8C U10C U11G C12G C13U: the “aptazyme ON/OFF ratio” value worked out at 1.08. The result for U7C U8C G9U U11G C12U reads 1.19; that for U7G U8G G9U U11A C13G, 1.09. To U7A U8G G9U U10A U11G C12G belongs 1.19.

As to U7A U8G G9A U10G U11G C12A C13G, the “aptazyme ON/OFF ratio” value came out at 1.34. As to U7A U8G G9A U10G U11G C12A C13U, the “aptazyme ON/OFF ratio” value is 1.5.

As for U7C U8G G9U U10C C12A C13G, the “aptazyme ON/OFF ratio” value was 1.19. As for U8G G9A U11G C12G, the “aptazyme ON/OFF ratio” value is 1.23. As for U7G U8G G9U U10C U11A C12U C13U, the “aptazyme ON/OFF ratio” value was determined as 1.36. Turning to U7A U8A G9A U10G U11G C12A C13G, the “aptazyme ON/OFF ratio” value was determined as 1.29. The result for U7G U8G G9A U10A U11A C12U C13A reads 1.03; that for U7A U8G G9U U10G U11A C12G, 1.46. The result for U7A U8C U10A C12U C13U reads 1.22. The result for U7G U8G G9C C13G reads 1.16; that for U7C U8G G9A U10A U11A C13U, 1.12.

For U7C U8A G9U U10A U11G C12G C13U, the “aptazyme ON/OFF ratio” value worked out at 1.12.

Regarding U7A U8G U10G C12G C13A, the “aptazyme ON/OFF ratio” value stood at 1.26.

For U7C U8G C12A C13A, the “aptazyme ON/OFF ratio” value came to 1.22.

With U7A U8G G9U U10G U11G C12U C13U, the “aptazyme ON/OFF ratio” value worked out at 1.21.

With U7G U10A C12A C13A, the “aptazyme ON/OFF ratio” value came out at 1.21. The result for U7G U10A C12A C13U reads 1.18. To U7G U8G U10A U11C C12A C13G belongs 1.23; to G9A U10A U11C C12U C13G, 1.36.

Turning to U7A U8G G9U U10A C12A, the “aptazyme ON/OFF ratio” value turned out to be 1.45.

Consider U7C U8A G9C U10A U11A C12A C13A, for which the “aptazyme ON/OFF ratio” value was 1.19. Turning to U7G U10A U11G C12U C13G, the “aptazyme ON/OFF ratio” value came out at 1.22.

Consider U7A G9U U10G C12U C13A, for which the “aptazyme ON/OFF ratio” value was found to be 1.32. With U7C U8C G9C U10G U11A C12U C13A, the “aptazyme ON/OFF ratio” value turned out to be 1.07. The result for U7C U8G G9C U10A U11A C12A C13U reads 1.26. With U7G U8A G9A U11A C12A C13G, the “aptazyme ON/OFF ratio” value came to 1.08. To U7A U8G G9A C12U belongs 1.63.

Consider U8A G9U U10A U11G C12A C13A, for which the “aptazyme ON/OFF ratio” value stood at 1.01.

For the variant U7A U8A U10G U11A C13U, the “aptazyme ON/OFF ratio” value is 1.15. As to U8C G9C U11A C12U C13U, the “aptazyme ON/OFF ratio” value was found to be 1.07. The result for U10G U11C C12A C13G reads 1.12; that for U7A G9A U10A U11A C12U C13G, 1.32. In the case of U7C U8A G9C U10G U11A C12A C13G, the “aptazyme ON/OFF ratio” value turned out to be 1.13. To U7C U8G G9U U10G U11C C12U C13G belongs 1.08. To U8A G9U U10C U11C C12G belongs 1.03; to U8A G9U U10A C13G, 1.1; to U7C U8C G9A C12A C13G, 1.05.

Take U8G U10G U11A C12G C13A: the “aptazyme ON/OFF ratio” value stood at 1.13. The result for U7A U8C G9C U10A C12G C13G reads 1.14; that for U7C U8G U10C U11A C12U C13U, 1.24. As for U7C U10C U11G C12G C13G, the “aptazyme ON/OFF ratio” value was 1.16. The result for U7A U8G G9A U10G U11A C13U reads 1.03.

On to U7G G9U U10G C12G, for which the “aptazyme ON/OFF ratio” value turned out to be 1.36. With U7C U8A G9A U10A U11A C12G, the “aptazyme ON/OFF ratio” value turned out to be 1.23. As for U7G U8A G9C U10C U11A C12U C13U, the “aptazyme ON/OFF ratio” value was 1.03.

For the variant U7C U8C G9U U10C U11G, the “aptazyme ON/OFF ratio” value is 1.32. To U7G U8C G9C U11A C12G belongs 1.2; to U8C G9U U11A C12U C13U, 1.17; to U7G U8A U10G U11C C12G C13A, 1.4. Consider U8G U10C U11C C13U, for which the “aptazyme ON/OFF ratio” value was determined as 1.04. As for U7G G9U U10G C13U, the “aptazyme ON/OFF ratio” value turned out to be 1.48.

Consider U7A U8C G9U U10G U11C C12U C13G, for which the “aptazyme ON/OFF ratio” value turned out to be 1.19. Regarding G9U U10C C12U C13U, the “aptazyme ON/OFF ratio” value turned out to be 1.63.

For the variant U7G G9U U10A U11G C13A, the “aptazyme ON/OFF ratio” value worked out at 1.13. To U7G U8G G9C U11C C13A belongs 1.4; to U8A G9C U11C C12A, 1.08. The result for U7A U10G U11A C12G C13U reads 1.28; that for U7A U8C G9C U10G C12U C13U, 1.26; that for U7C U8C U10C U11G C12G C13A, 1.15. The result for U7C U8G U11G C12U C13G reads 1.07; that for U8C G9C U10A U11G C13U, 1.13. With U7C G9A U11G C12A C13U, the “aptazyme ON/OFF ratio” value amounted to 1.14. As for U7G G9C U10A U11G, the “aptazyme ON/OFF ratio” value was 3.08.

On to U7C U8G G9C U11A, for which the “aptazyme ON/OFF ratio” value turned out to be 1.86. On to U8C G9U U10G U11A C12A C13U, for which the “aptazyme ON/OFF ratio” value is 1.72.

Turning to U7A U8G U11C C12G C13U, the “aptazyme ON/OFF ratio” value worked out at 1.2.

For the variant U7C U8C U11A C13U, the “aptazyme ON/OFF ratio” value stood at 1.27. With U7A G9A U10C U11C C12U C13U, the “aptazyme ON/OFF ratio” value was determined as 1.04.

For the variant U7A U8A U10C C12U C13U, the “aptazyme ON/OFF ratio” value came out at 1.14.

Regarding U7C U8G U10G C12A C13U, the “aptazyme ON/OFF ratio” value was found to be 1.33. To U7G U8G G9A U10C U11C C12A C13U belongs 1.11; to U7C U8C G9U U10C U11A C13G, 1.14. To U8A G9C U11C C12U C13A belongs 1.05. On to U7A U8A G9U U10A U11G C12A C13A, for which the “aptazyme ON/OFF ratio” value came to 1.07.

On to U7A U8C C12G C13U, for which the “aptazyme ON/OFF ratio” value was determined as 1.35.

On to U7C U8A G9A U10G C12A C13G, for which the “aptazyme ON/OFF ratio” value turned out to be 1.15. The result for U8C U11C C12U C13G reads 1.5.

The values above are taken from the RNAGym collection of RNA variant scans (doi:10.1021/acssynbio.7b00057).
